# Experimental data from publication PMC12643061, “Structural dynamics of the plant hormone receptor ETR1 in a native‐like membrane environment” (Febs Letters, 2025).
# B1: ethylene receptor 1 (ETR1) from Arabidopsis thaliana, full-length, with N-terminal 10xHis-tag (receptor, UniProt P49333 1-738, looked up)
# chain: MEVCNCIEPQWPADELLMKYQYISDFFIAIAYFSIPLELIYFVKKSAVFPYRWVLVQFGAFIVLCGATHLINLWTFTTHSRTVALVMTTAKVLTAVVSCATALMLVHIIPDLLSVKTRELFLKNKAAELDREMGLIRTQEETGRHVRMLTHEIRSTLDRHTILKTTLVELGRTLALEECALWMPTRTGLELQLSYTLRHQHPVEYTVPIQLPVINQVFGTSRAVKISPNSPVARLRPVSGKYMLGEVVAVRVPLLHLSNFQINDWPELSTKRYALMVLMLPSDSARQWHVHELELVEVVADQVAVALSHAAILEESMRARDLLMEQNVALDLARREAETAIRARNDFLAVMNHEMRTPMHAIIALSSLLQETELTPEQRLMVETILKSSNLLATLMNDVLDLSRLEDGSLQLELGTFNLHTLFREVLNLIKPIAVVKKLPITLNLAPDLPEFVVGDEKRLMQIILNIVGNAVKFSKQGSISVTALVTKSDTRAADFFVVPTGSHFYLRVKVKDSGAGINPQDIPKIFTKFAQTQSLATRSSGGSGLGLAISKRFVNLMEGNIWIESDGLGKGCTAIFDVKLGISERSNESKQSGIPKVPAIPRHSNFTGLKVLVMDENGVSRMVTKGLLVHLGCEVTTVSSNEECLRVVSHEHKVVFMDVCMPGVENYQIALRIHEKFTKQRHQRPLLVALSGNTDKSTKEKCMSFGLDGVLLKPVSLDNIRDVLSDLLEPRVLYEGM
# notes: Ethylene receptor 1 (ETR1), Arabidopsis thaliana, full length, 738 residues, 82.5 kDa per monomer; Membrane protein, measured embedded in DMPC nanodiscs held by the scaffold protein MSP1E3D1 (His-tag cleaved by TEV); No cleavage of the ETR1 His-tag is described; the loaded nanodiscs were eluted from Ni-INDIGO beads by it just before SEC; also called ETR1_10xHis; ethylene receptor ETR1; source: E. …
# Biological target: the molecule itself
# Assay: SEC; ETR1 in DMPC/MSP1E3D1 nanodiscs; Superose 6 Increase 10/300 GL, 50 mM Tris-HCl pH 8.0, 200 mM NaCl, 0.3 mL/min; column calibrated with protein standards; elution volume 16.77 mL, ~450 kDa
protein,measurement,value
B1,stoichiometry N,2
